Data reported in PMC9798004 (Frontiers in Psychiatry, 2022).
No end group written: not given here.

How the values were obtained:
MTNR1A = target: T1, MTNR1A (Homo sapiens, UniProt P48039); test: PathHunter β-arrestin assay; type: cell-based; settings: screen, control agonist; CHO, 37C, 2HR
T1 construct: purchased Eurofins DiscoverX (PathHunter gpcrMAX)

MRGPRX1 = target: T2, MRGPRX1 (Homo sapiens, UniProt Q96LB2); test: PathHunter β-arrestin assay; type: cell-based; settings: screen, control agonist; CHO, 37C, 2HR
T2 construct: purchased Eurofins DiscoverX (PathHunter gpcrMAX)
T2 sequence (Q96LB2 whole entry): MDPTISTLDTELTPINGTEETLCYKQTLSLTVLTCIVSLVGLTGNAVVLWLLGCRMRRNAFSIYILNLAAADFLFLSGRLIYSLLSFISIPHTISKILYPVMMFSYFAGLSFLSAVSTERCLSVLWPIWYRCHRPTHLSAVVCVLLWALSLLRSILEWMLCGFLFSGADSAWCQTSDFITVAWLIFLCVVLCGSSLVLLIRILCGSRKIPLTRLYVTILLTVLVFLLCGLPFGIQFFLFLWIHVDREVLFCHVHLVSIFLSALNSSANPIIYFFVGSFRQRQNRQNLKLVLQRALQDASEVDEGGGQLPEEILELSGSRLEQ

GRPR = target: T3, GRPR (Homo sapiens, UniProt P30550); test: PathHunter β-arrestin assay; type: cell-based; settings: control agonist
T3 construct: purchased Eurofins DiscoverX (PathHunter gpcrMAX)
T3 sequence (P30550 whole entry): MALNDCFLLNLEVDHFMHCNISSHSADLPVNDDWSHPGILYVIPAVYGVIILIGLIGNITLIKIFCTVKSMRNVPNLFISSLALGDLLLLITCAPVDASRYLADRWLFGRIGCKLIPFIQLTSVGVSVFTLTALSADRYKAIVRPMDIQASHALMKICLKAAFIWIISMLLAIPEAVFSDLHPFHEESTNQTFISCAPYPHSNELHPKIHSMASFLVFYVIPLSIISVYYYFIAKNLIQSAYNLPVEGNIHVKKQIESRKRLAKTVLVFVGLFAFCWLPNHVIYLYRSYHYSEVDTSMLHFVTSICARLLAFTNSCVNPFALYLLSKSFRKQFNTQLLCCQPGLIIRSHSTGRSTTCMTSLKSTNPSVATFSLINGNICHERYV
Protocol: (§1) Follow up experiments were prioritized based on the difference between S/N and CoV. Targets with a >5-fold difference between S/N and CoV were investigated for their potential contribution to the AMB-FUBINACA toxidrome with 10-point concentration-response curves generated in technical replicate (range 1.5–30 μM) using the EC80 of the relevant agonist, where applicable in antagonist mode. Simultaneous agonist and antagonist curves were run in parallel to ensure reliability of the assay (see Supplementary Table 2), with both RC50 and signal to background aligning with historical averages, and Z' >0.5. RC50 was estimated using a four-parameter fit (CBIS Data Analysis Suite, ChemInnovation, San Diego, CA) on normalized data.

NMU1R = target: T4, NMU1R (Homo sapiens, UniProt Q9HB89); test: PathHunter β-arrestin assay; type: cell-based; settings: screen, control agonist; U2OS, 37C, 2HR
T4 construct: purchased Eurofins DiscoverX (PathHunter gpcrMAX)
T4 sequence (Q9HB89 1-426): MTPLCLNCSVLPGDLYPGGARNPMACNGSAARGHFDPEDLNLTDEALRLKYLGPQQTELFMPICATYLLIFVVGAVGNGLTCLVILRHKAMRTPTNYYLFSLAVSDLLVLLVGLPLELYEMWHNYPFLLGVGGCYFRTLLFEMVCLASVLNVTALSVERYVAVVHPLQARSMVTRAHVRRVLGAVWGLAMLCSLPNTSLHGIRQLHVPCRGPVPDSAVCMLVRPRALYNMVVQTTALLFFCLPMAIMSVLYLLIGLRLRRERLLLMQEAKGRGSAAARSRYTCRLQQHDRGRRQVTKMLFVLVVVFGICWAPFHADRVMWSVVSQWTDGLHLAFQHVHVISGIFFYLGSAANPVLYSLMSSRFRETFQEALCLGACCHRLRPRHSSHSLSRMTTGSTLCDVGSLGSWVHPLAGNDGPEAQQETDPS

MLNR = target: T5, MLNR (Homo sapiens, UniProt O43193); test: PathHunter β-arrestin assay; type: cell-based; settings: screen, control agonist; CHO, 37C, 2HR
T5 construct: purchased Eurofins DiscoverX (PathHunter gpcrMAX)
T5 sequence (O43193 whole entry): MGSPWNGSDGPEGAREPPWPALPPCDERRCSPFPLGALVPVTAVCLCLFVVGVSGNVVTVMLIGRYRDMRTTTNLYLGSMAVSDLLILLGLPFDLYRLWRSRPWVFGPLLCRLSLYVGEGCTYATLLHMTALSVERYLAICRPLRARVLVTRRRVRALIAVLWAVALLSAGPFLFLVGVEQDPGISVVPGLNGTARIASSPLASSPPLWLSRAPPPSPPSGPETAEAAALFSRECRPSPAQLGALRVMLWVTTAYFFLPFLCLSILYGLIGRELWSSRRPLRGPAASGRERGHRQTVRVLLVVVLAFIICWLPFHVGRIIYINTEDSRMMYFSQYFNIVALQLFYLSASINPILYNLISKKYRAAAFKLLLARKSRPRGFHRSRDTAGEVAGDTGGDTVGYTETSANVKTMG

OXTR = OXTR (Homo sapiens, UniProt P30559); test: PathHunter β-arrestin assay; type: cell-based; settings: follow-up assays, control antagonist
Chain of OXTR (P30559 whole entry): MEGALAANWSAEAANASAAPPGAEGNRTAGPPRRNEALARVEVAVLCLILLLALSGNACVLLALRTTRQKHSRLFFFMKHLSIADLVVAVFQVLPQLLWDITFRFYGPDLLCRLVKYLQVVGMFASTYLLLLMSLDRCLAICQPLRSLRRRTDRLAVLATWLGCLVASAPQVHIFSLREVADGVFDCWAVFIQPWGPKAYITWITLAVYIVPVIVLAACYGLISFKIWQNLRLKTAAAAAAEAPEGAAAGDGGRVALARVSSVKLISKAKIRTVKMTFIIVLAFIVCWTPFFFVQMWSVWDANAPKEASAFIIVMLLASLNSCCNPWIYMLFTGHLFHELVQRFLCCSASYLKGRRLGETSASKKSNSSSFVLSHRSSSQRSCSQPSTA

NPBWR1 = target: T6, NPBWR1 (Homo sapiens, UniProt P48145); test: PathHunter β-arrestin assay; type: cell-based; settings: screen, control agonist; CHO, RT, 2HR
T6 construct: purchased Eurofins DiscoverX (PathHunter gpcrMAX)
T6 sequence (P48145 1-328): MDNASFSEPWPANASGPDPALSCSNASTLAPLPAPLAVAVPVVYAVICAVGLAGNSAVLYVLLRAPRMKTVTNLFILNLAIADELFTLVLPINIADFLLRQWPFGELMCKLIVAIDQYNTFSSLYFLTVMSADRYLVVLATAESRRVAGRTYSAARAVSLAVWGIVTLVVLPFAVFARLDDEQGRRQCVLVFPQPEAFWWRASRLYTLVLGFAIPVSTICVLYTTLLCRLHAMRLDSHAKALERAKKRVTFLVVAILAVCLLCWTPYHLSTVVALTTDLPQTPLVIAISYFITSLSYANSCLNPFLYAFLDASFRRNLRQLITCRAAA

NPBWR2 = target: T7, NPBWR2 (Homo sapiens, UniProt P48146); test: PathHunter β-arrestin assay; type: cell-based; settings: screen, control agonist; CHO, 37C, 2HR
T7 construct: purchased Eurofins DiscoverX (PathHunter gpcrMAX)
T7 sequence (P48146 whole entry): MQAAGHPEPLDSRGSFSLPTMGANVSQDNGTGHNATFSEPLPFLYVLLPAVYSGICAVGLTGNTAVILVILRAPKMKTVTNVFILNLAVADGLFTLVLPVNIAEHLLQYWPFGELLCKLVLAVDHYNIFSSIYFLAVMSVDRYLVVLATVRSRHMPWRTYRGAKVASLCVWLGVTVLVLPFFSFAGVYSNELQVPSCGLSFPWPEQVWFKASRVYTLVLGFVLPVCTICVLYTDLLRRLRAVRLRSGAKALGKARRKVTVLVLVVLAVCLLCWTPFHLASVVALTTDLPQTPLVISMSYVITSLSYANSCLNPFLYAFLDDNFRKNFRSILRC

LTB4R = target: T8, LTB4R (Homo sapiens, UniProt Q15722); test: PathHunter β-arrestin assay; type: cell-based; settings: screen, control agonist; CHO, 37C, 2HR
T8 construct: purchased Eurofins DiscoverX (PathHunter gpcrMAX)
T8 sequence (Q15722 whole entry): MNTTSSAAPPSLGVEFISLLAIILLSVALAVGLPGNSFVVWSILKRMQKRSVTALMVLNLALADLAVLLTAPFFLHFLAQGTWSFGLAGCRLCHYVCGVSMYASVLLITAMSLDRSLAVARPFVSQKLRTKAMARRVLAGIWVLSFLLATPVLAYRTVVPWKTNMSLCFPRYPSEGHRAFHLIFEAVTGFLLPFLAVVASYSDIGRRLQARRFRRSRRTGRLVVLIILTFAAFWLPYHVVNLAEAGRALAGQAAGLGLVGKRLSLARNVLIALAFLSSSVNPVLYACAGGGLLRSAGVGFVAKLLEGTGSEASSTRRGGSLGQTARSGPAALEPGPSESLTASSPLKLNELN

HRH2 = HRH2 (Homo sapiens, UniProt P25021); test: PathHunter β-arrestin assay; type: cell-based; settings: control agonist
Chain of HRH2 (P25021 whole entry): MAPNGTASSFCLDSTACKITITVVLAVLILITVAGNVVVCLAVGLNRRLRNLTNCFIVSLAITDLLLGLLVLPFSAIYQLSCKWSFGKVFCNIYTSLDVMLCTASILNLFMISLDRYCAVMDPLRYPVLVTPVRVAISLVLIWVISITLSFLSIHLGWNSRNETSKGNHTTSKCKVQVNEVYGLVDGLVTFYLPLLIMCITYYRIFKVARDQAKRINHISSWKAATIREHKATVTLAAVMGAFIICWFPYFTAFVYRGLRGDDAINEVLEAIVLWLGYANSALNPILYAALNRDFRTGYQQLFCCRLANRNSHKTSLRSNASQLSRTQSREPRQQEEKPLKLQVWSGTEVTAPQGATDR

HRH4 = HRH4 (Homo sapiens, UniProt Q9H3N8); settings: screen, control agonist; U20S, 37C, 4HR
Chain of HRH4 (Q9H3N8 whole entry): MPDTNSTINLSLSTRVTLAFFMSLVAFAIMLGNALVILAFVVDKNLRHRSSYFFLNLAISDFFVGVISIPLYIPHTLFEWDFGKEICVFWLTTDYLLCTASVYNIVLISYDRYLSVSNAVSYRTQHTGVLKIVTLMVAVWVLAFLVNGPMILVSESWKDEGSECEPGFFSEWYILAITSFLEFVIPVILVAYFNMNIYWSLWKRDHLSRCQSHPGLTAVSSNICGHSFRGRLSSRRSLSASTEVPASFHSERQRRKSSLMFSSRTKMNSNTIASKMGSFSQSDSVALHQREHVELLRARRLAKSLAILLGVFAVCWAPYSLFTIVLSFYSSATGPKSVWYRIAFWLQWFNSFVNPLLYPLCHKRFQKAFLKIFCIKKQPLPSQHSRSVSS

CCR10 = target: T9, CCR10 (Homo sapiens, UniProt P46092); test: PathHunter β-arrestin assay; type: cell-based; settings: control agonist
T9 sequence (P46092 1-362): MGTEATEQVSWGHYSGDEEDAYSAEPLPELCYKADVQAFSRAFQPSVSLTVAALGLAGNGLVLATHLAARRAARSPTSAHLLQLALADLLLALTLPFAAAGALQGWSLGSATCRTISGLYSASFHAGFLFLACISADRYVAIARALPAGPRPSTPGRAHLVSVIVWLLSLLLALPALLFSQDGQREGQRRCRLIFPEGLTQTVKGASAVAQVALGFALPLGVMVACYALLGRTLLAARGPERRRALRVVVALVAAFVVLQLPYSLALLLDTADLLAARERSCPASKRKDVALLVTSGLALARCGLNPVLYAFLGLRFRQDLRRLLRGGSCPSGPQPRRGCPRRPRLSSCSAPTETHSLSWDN
Protocol: as §1

[1] = follow-up concentration-response assays

T1 sequence (P48039 whole entry): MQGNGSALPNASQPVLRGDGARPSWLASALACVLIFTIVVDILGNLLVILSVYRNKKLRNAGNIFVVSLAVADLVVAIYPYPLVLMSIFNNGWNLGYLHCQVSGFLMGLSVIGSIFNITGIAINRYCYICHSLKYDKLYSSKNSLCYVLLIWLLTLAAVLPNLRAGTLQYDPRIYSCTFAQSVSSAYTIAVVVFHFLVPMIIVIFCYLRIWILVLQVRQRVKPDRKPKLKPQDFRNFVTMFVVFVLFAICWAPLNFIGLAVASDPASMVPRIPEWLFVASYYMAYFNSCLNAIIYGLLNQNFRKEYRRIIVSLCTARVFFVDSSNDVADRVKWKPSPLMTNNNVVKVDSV

COc1ccc2[nH]c(I)c(CCNC(C)=O)c2c1 [2-Iodomelatonin]
EC80 (MTNR1A): 2.77 nM

BAM(8-22)
EC80 (MRGPRX1): 8580 nM

GRP: control agonist for GRPR (VPLPAGGGTVLTKMYPRGNHWAVGHLM; not fully specified (C-terminus); UniProt P07492 24-50, looked up)
EC80 (GRPR; [1]): 1.95 nM | EC80 (GRPR; screen, U20S, 37C, 2HR): 5.85 nM

Neuromedin U-25 (FRVDEEFQSPFASQSRGYFLFRPRN; ends and bridges not checked; UniProt P48645 142-166, looked up) [control agonist]
EC80 (NMU1R): 3.63 nM

Motilin
EC80 (MLNR): 5.69 nM

Cc1ccccc1N1CCN(S(=O)(=O)C[C@]23CC[C@H](C[C@@H]2NC(=O)[C@@H](N)CCS(C)(=O)=O)C3(C)C)CC1 [L-368,899]
IC50 (OXTR): 7.39 nM

Neuropeptide W23 (WYKHVASPRYHTVGRAAGLLMGL; Neuropeptide W-23; UniProt Q8N729 33-55, looked up) [control agonist]
EC80 (NPBWR1): 8.1 nM | EC80 (NPBWR2): 4.04 nM

CCCCC/C=C\C[C@@H](O)/C=C/C=C/C=C\[C@@H](O)CCCC(=O)O [Leukotriene B4]
EC80 (LTB4R): 456 nM

NCCc1c[nH]cn1 [Histamine]
EC80 (HRH2; [1]): 10722 nM | EC80 (HRH2; screen, CHO, RT, 2HR): 10700 nM | EC80 (HRH4): 102 nM

B1: CCL27: control agonist (protein, UniProt Q9Y4X3 25-112, looked up)
C-C motif chemokine 27: FLLPPSTACCTQLYRKPLSDKLLRKVIQVELQEADGDCHLQAFVLHLAQRSICIHPQNPSLSQWFEHQERKLHGTLPKLNFGMLRKMG
EC80 (CCR10; [1]): 90.49 nM | EC80 (CCR10; screen, U2OS, 37C, 2HR): 30.2 nM
